According to patent US8216581 (University of Pennsylvania, dated 2012):

B1: H44L4 (Fab, V domains shown)
VH: QVQLVESGGGVVQPGRSLRLSCAASGFTFSYYAMVWVRQAPGKGLEWVAVISNDGRNKYYADSVKGRFTISRDNAKNTLYLQMNSLRVEDTAVYYCARLGYWGPGTLVTVSS
VL: DIQMTQSPSSLSVSVGDRVTITCRASQTITMYLNWYQQKPGKAPKLLIYAGSSLPSGVPPRFSGSGSGTDFTLTISSLQPEDFATYYCQQSYSTLTFGGGTKVEMK
notes: their results are put here; also called anti-GPIIb/IIIa platelet autoantibody; ITP patient A antibody H44L4
B2: H44L126 (Fab, V domains shown)
VH: B1 VH
VL: DIQMTQSPSSLSASVGDRVIVTCRASQSISSYVSWYQQKPGKAPKLLISTTSTLQSGVPSRFSGSASGTDFTLTISSLQPEDFATYYCQQSSSRPLTFGQGTKVEIK
notes: Soluble Fab
B3: H44L127 (Fab, V domains shown)
VH: B1 VH
VL: DIQMTQSPSSLSASVGDRVTITCRASQTITSFLNWYQQKRGKAPKLLIYGASTLQSGVPSRFSGSGSGTDFTLTISSLQPEDVATYYCQQTYSQPLTFGQGTKVEIK
notes: Soluble Fab
B4: H44L128 (Fab, V domains shown)
VH: B1 VH
VL: DIQMTQSPSSLSAFVGDRVTITCRASQSITSYLNWYQQKPGKAPNLLIYAASSLQSGVPSRFSGSGSGTEFTLTISSLQPEDYATYYCQQRYSYILTFGQGTKVEIK
notes: Soluble Fab
B5: P73-6 (peptide)
peptide: CETWWRLSC
B6: P73-2 (peptide)
peptide: CIVEHFFHC
B7: P73-7 (peptide)
peptide: CQHKLPSNC
B8: P124-1 (peptide)
peptide: IDVWWLSTQGVP
B9: P74-1a (peptide)
peptide: CVVQWMFQC
B10: P74-8 (peptide)
peptide: CVVSWMFQC
B11: P123-8 (peptide)
peptide: FLPISTLITPSG
B12: P124-2 (peptide)
peptide: FPLMSLINPWRT
B13: P124-11 (peptide)
peptide: LPFNTLIVPGRT

The binders below were run against T1, immobilized GPIa/IIa (UniProt P17301 30-1181; P05556 21-798) (assay: ELISA (PakAuto kit), soluble Fab).
T1 construct: Antigen of the PakAuto ELISA kit
Procedure: Antibodies to platelet GPIIb/IIIa, GPIb/IX, or GPIa/IIa were measured by using a PakAuto kit (GTI, Brookfield, Wis.); those to cardiolipin were assessed with a QuantaLite kit (Inova, San Diego, Calif.).

Binder	binding result
B1	no binding

What follows are binders tested against T2, GPIIb/IIIa on intact human platelets (human, UniProt P08514 32-1039; P05106 27-788) (assay: flow cytometry on intact platelets).
T2 construct: whole, on cells; also called platelet GPIIb/IIIa; αIIbβ3

Binder	binding result
B2	no binding
B3	no binding
B4	no binding

These binders were tested against T3, vitronectin receptor (αvβ3) on CHO cells (UniProt P06756 31-1048; P05106 27-788, limits assumed) (assay: flow cytometry on transfected CHO cells).
T3 construct: whole, on cells
T3 sequence (P06756 31-1048 limits assumed, chain 1 of 2): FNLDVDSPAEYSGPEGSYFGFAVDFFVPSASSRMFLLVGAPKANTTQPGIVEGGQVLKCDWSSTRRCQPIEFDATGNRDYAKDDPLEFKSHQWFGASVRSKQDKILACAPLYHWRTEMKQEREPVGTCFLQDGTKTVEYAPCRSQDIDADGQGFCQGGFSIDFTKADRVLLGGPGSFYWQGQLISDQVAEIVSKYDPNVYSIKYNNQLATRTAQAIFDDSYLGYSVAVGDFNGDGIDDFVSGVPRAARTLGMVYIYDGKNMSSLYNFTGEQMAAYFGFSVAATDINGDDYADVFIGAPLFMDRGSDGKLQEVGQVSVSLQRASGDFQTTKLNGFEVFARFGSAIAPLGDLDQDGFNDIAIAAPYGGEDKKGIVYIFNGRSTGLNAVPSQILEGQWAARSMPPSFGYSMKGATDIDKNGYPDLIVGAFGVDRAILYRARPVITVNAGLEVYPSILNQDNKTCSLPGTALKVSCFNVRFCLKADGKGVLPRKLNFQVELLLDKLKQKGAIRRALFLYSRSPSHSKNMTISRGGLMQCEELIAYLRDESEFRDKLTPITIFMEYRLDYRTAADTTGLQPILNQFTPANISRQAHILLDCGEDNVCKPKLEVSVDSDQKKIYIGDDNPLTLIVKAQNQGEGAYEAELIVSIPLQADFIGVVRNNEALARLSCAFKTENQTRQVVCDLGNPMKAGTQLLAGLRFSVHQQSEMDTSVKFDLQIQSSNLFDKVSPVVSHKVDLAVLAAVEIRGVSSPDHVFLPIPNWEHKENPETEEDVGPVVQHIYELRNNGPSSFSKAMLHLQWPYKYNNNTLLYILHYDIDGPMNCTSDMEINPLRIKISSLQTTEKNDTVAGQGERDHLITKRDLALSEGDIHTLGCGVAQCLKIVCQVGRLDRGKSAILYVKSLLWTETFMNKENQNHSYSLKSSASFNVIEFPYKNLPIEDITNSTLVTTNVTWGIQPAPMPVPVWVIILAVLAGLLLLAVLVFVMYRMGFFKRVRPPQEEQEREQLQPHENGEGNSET
T3 sequence (P05106 27-788 limits assumed, chain 2 of 2): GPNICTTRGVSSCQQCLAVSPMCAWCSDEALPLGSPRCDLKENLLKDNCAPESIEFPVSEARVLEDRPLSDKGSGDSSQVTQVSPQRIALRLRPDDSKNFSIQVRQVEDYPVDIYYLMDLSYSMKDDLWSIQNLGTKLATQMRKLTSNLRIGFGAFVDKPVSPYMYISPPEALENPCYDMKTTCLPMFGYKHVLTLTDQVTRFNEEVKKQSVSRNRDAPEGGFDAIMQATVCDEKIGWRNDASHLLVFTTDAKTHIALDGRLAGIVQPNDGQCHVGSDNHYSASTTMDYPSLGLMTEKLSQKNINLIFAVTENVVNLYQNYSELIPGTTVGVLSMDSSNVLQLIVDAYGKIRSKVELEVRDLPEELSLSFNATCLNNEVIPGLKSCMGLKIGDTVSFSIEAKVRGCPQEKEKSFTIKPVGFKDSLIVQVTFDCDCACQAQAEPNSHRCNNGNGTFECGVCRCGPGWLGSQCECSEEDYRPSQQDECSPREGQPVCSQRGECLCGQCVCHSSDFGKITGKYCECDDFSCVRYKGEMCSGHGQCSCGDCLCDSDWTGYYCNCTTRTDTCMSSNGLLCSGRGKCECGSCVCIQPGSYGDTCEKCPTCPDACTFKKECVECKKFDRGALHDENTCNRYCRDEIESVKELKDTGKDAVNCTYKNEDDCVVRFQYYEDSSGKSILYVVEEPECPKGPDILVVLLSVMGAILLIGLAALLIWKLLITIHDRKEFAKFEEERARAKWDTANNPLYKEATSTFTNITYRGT

Binder	binding result
B1	no binding

What follows are binders tested against T4, H44L4 full-length IgG (assay: peptide ELISA (scheme of FIG. 8)).
T4 construct: also called autoanti-GPIIb/IIIa

Binder	binding result
B5	binds
B6	binds
B7	binds
B8	binds
B9	binds
B10	binds
B11	binds
B12	binds
B13	binds
